The values that follow come from the supplement of paper PMC10724198.

Series [1] concerns Saccharomyces cerevisiae. Put plainly: protein stability index of tFT-peptide fusion in wild type (PSI (0-1 scale)); higher = more stable (slower turnover). To be noted: genetic background: wild type. The method, then:
(§1)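 MPS profiling in S. cerevisiae of two library types built from selected 12-aa C-degron peptides (IN1, IN2, LN1, LN3, VN2, R1-R5, W1-W3, Atg1 and Rpa12 C-termini): saturation mutagenesis libraries and C-terminal +1 capping libraries (13 aa). Each peptide is fused to the C-terminus of a sfGFP-mCherry timer, after a GGGS linker. Cells are FACS-sorted into 8 mCherry/sfGFP bins and sequenced. PSI runs from 0 (unstable) to 1 (stable), measured once in wild type and in the das1Δ or doa10Δ background.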

For series [2], the system named is Saccharomyces cerevisiae. Put plainly: protein stability index of tFT-peptide fusion in deletion strain of DAS1 (PSI (0-1 scale)); higher = more stable (slower turnover). The method, then: as §1
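Wherever protein stability index of tFT-peptide fusion in deletion strain of DAS1 is given: PSI is a weighted mean of each variant's read distribution over the sorted stability bins, computed only for variants having over 10 reads in total.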
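Wherever protein stability index of tFT-peptide fusion in wild type is given: PSI derived as read-weighted mean over the 8 sorting bins, only variants exceeding 10 total reads kept, mCherry placed adjacent to the peptide and sfGFP distal.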

With LVVYLSCVACINH, the results for the protein stability index with Saccharomyces cerevisiae [1] and in the series on Saccharomyces cerevisiae [2] were 0.0236 and 0.0365, respectively.
For LVVYLSCVACINM, in that order: 0.183 and 0.206.
The corresponding values for LVVYLSCVACINV are 0.02 and 0.0328.
Regarding LVVYLSCVACMN, the values for the protein stability index in the series with Saccharomyces cerevisiae [1] and in the series with Saccharomyces cerevisiae [2] were 0.0204 and 0.0497, respectively.
The corresponding values for LVVYLSCVACNN are 0.127 and 0.16.
For LVVYLSCVACSN, in that order: 0.0158 and 0.0313.
Take LVVYLSCVAYIN: the protein stability index was 0.0128 in the series on Saccharomyces cerevisiae [1] and 0.0273 in the series with Saccharomyces cerevisiae [2].
Regarding LVVYLSCVDCIN, the protein stability index with Saccharomyces cerevisiae [1] is 0.402; in the series with Saccharomyces cerevisiae [2], 0.417.
For LVVYLSCVECIN, in that order: 0.125 and 0.262.
For LVVYLSCVFCIN, in that order: 0.0477 and 0.167.
The corresponding values for LVVYLSCVICIN are 0.0482 and 0.112.
On to LVVYLSHVACIN, for which the protein stability index amounted to 0.148 with Saccharomyces cerevisiae [1] and 0.411 in the series with Saccharomyces cerevisiae [2].
For the sequence LVVYLSNVACIN, the protein stability index with Saccharomyces cerevisiae [1] was 0.344; with Saccharomyces cerevisiae [2], 0.5.
Take LVVYLSRVACIN: the protein stability index with Saccharomyces cerevisiae [1] was 0.087; in the series with Saccharomyces cerevisiae [2], 0.356.
In the case of LVVYRSCVACIN, the protein stability index in the series on Saccharomyces cerevisiae [1] is 0.133; in the series with Saccharomyces cerevisiae [2], 0.333.
Turning to LWVYLSCVACIN, the protein stability index in the series on Saccharomyces cerevisiae [1] was 0.0149; in the series with Saccharomyces cerevisiae [2], 0.0209.
Consider LYILRQKMNHQN, for which the protein stability index in the series with Saccharomyces cerevisiae [1] stood at 0.135; in the series with Saccharomyces cerevisiae [2] it was 0.666.
With PDKKNHLIKLLN, the protein stability index in the series with Saccharomyces cerevisiae [1] amounted to 0.09; with Saccharomyces cerevisiae [2], 0.768.
Consider PDKRAHLIKLLN, for which the values for the protein stability index with Saccharomyces cerevisiae [1] and with Saccharomyces cerevisiae [2] were 0.112 and 0.617, respectively.
As for PDKRNHKIKLLN, the results for the protein stability index in the series on Saccharomyces cerevisiae [1] and with Saccharomyces cerevisiae [2] were 0.086 and 0.599, respectively.
The corresponding values for PDKRNHLIALLN are 0.216 and 0.634.
For PDKRNHLIKELN, in that order: 0.355 and 0.597.
The corresponding values for PDKRNHLIKLIN are 0.115 and 0.612.
For the sequence PDKRNHLIKLLI, the protein stability index in the series with Saccharomyces cerevisiae [1] amounted to 0.206; with Saccharomyces cerevisiae [2] it was 0.594.
Consider PDKRNHLIKLPN, for which the values for the protein stability index with Saccharomyces cerevisiae [1] and with Saccharomyces cerevisiae [2] were 0.592 and 0.587, respectively.
In the case of PDKRNHLIKLQN, the protein stability index with Saccharomyces cerevisiae [1] came out at 0.453; in the series on Saccharomyces cerevisiae [2], 0.737.
For PDKRNHLIKLVN, in that order: 0.158 and 0.645.
For PDKRNHLIKPLN, the protein stability index in the series with Saccharomyces cerevisiae [1] was 0.607; in the series with Saccharomyces cerevisiae [2], 0.586.
For PDKRNHLIKRLN, the values for the protein stability index in the series on Saccharomyces cerevisiae [1] and in the series on Saccharomyces cerevisiae [2] were 0.104 and 0.602, respectively.
On to PDKRNHLIMLLN, for which the protein stability index amounted to 0.193 with Saccharomyces cerevisiae [1] and 0.624 in the series on Saccharomyces cerevisiae [2].
For PDKRNHLIPLLN, in that order: 0.405 and 0.585.
For PDKRNHLIQLLN, in that order: 0.102 and 0.616.
Take PDKRNHLITLLN: the results for the protein stability index in the series with Saccharomyces cerevisiae [1] and with Saccharomyces cerevisiae [2] were 0.315 and 0.622, respectively.
For PDKRNHLQKLLN, in that order: 0.168 and 0.582.
For PDKRNHVIKLLN, in that order: 0.0941 and 0.605.
Regarding PDKRNHWIKLLN, the protein stability index with Saccharomyces cerevisiae [1] was 0.196; in the series with Saccharomyces cerevisiae [2], 0.567.
The corresponding values for PDKRNVLIKLLN are 0.125 and 0.589.
The corresponding values for PDKRNWLIKLLN are 0.0714 and 0.675.
The corresponding values for PDKRSHLIKLLN are 0.0872 and 0.631.
Consider PDKWNHLIKLLN, for which the protein stability index with Saccharomyces cerevisiae [1] was 0.0782; in the series on Saccharomyces cerevisiae [2], 0.576.
The corresponding values for PDLRNHLIKLLN are 0.13 and 0.614.
Consider PSGAASFWRVVG, for which the protein stability index stood at 0.16 in the series with Saccharomyces cerevisiae [1] and 0.668 in the series with Saccharomyces cerevisiae [2].
The corresponding values for PSLAASFERVVG are 0.655 and 0.675.
The corresponding values for PSLAASFHRVVG are 0.687 and 0.649.
For PSLAASFIRVVG, the protein stability index in the series with Saccharomyces cerevisiae [1] came out at 0.46; in the series on Saccharomyces cerevisiae [2], 0.435.
Turning to PSLAASFVRVVG, the protein stability index in the series with Saccharomyces cerevisiae [1] came out at 0.528; with Saccharomyces cerevisiae [2], 0.514.
For PSLAASFWGVVG, in that order: 0.697 and 0.715.
On to PSLAASFWLVVG, for which the figures for the protein stability index in the series with Saccharomyces cerevisiae [1] and in the series on Saccharomyces cerevisiae [2] were 0.38 and 0.611, respectively.
For PSLAASFWRAVG, in that order: 0.158 and 0.699.
For PSLAASFWREVG, in that order: 0.258 and 0.705.
As for PSLAASFWRVCG, the protein stability index in the series with Saccharomyces cerevisiae [1] is 0.163; in the series with Saccharomyces cerevisiae [2], 0.659.
Take PSLAASFWRVLG: the protein stability index in the series with Saccharomyces cerevisiae [1] was determined as 0.164; in the series on Saccharomyces cerevisiae [2] it was 0.68.
With PSLAASFWRVPG, the protein stability index in the series with Saccharomyces cerevisiae [1] is 0.677; with Saccharomyces cerevisiae [2], 0.689.
The corresponding values for PSLAASFWRVVGK are 0.666 and 0.689.
With PSLAASFWRVVGT, the protein stability index with Saccharomyces cerevisiae [1] was 0.674; with Saccharomyces cerevisiae [2], 0.698.
For PSLAASFWRVVP, in that order: 0.539 and 0.688.
The corresponding values for PSLAATFWRVVG are 0.135 and 0.674.
PSLACSFWRVVG: the protein stability index in the series with Saccharomyces cerevisiae [1] is 0.139; in the series with Saccharomyces cerevisiae [2], 0.675.
For the sequence PSLAYSFWRVVG, the protein stability index is 0.134 in the series on Saccharomyces cerevisiae [1] and 0.693 with Saccharomyces cerevisiae [2].
The corresponding values for PSLDASFWRVVG are 0.128 and 0.677.
For PSLFASFWRVVG, in that order: 0.109 and 0.694.
The corresponding values for PSLPASFWRVVG are 0.197 and 0.685.
As for PSLRASFWRVVG, the protein stability index in the series with Saccharomyces cerevisiae [1] is 0.141; in the series on Saccharomyces cerevisiae [2] it was 0.688.
The corresponding values for PSRAASFWRVVG are 0.149 and 0.691.
Regarding PSWAASFWRVVG, the protein stability index with Saccharomyces cerevisiae [1] amounted to 0.154; in the series with Saccharomyces cerevisiae [2], 0.714.
The corresponding values for PTLAASFWRVVG are 0.162 and 0.703.
On to PVLAASFWRVVG, for which the protein stability index in the series on Saccharomyces cerevisiae [1] was found to be 0.161; in the series with Saccharomyces cerevisiae [2], 0.68.
